Reference: patent US20250074942A1, “COMPOSITIONS AND METHODS FOR COVALENT PEPTIDE-BASED MODULATORS OF HLA-E” (Calico Life Sciences LLC, priority 2022, published 2025)

Target: HLA-E/B2M complex, refolded and biotinylated ([HLAE(hu)(22-305)]-Avitag + [B2M(h)(21-119)]) (human), P13747
Experiment: cross-linking, 10-fold excess over [HLA-E+VL9], 4 h 37 C, LC-MS

**Q.** With VMACRTLFL (modifications not checked) [VL9-4 Cys(mSF)] as the binder, how does the % cross-linking with HLA-E read?
**A.** 36%

**Q.** With VMAPRTCFL (modifications not checked) [VL9-7 Cys(mSF)] as the binder, how does the % cross-linking with HLA-E read?
**A.** 22%

**Q.** VMCPRTLFL (modifications not checked) [VL9-3 Cys(mSF)] was tested. Which % cross-linking with HLA-E did it give?
**A.** 73%

**Q.** Which % cross-linking with HLA-E does the source give for VMAPRTLCL (modifications not checked) [VL9-8 Cys(mSF)] here?
**A.** 87%
